Measurements from patent US20160271248A1, “CXCR4 UP- AND DOWN-REGULATION FOR TREATMENT OF DISEASES OR DISORDERS” (priority 2013, published 2016).

Test system: neuronal FHC
Test: gp120-mediated upregulation of neuronal FHC in bilaminar co-cultures with neutralizing antibodies or IL-1ra
Assay type: cell-based, rat
Conditions: IL-1β antibody 50 μg/mL, IL-1ra 1 μg/mL
Protocol: FIG. 13, comprising FIGS. 13A-13C, is a set of bar graphs and images illustrating that the presence of an IL-1β neutralizing antibody or IL-1 receptor antagonist abrogated gp120-mediated increases in FHC. Rat neurons cultured with a feeder layer of glia (8 DIV) were treated with either gp120IIIB (200 pM) or gp120BaL (200 pM) in the presence or absence of TNF-α antibody (40 μg/mL), IL-1β antibody (50 μg/mL) or IL-1ra (1 μg/mL). The presence of a TNF-α neutralizing antibody had no effect on the ability of gp120 to upregulate neuronal FHC. Neutralization or antagonism of IL-1β mitigated increases in neuronal FHC caused by gp120 in bilaminar cultures.
Rat cortical neurons were cultured in serum-free media in the presence of a glial feeder layer (Shimizu, et al., 2011, J. Vis. Exp. 57). This culture system largely preserves the in vivo environment, due to the presence of glia; however, it still enables direct investigation of neurons that can be separated by the glia before experiments. Selected studies were also performed in neurons grown in the absence of glia for the entire culture period, as indicated (Sengupta, et al., 2009, J. Neurosci. 29(8):2534-44). All experiments were conducted between 8-13 days in vitro (DIV).
Total protein extracts were obtained using standard protocols. […]

B1: IL-1ra: IL-1 receptor antagonist, an endogenous inhibitor of IL-1 signaling (protein, UniProt P25086 27-178, looked up)
Interleukin-1 receptor …: HPAGKRPCKMQAFRIWDTNQKTFYLRNNQLIAGYLQGPNTKLEEKIDMVPIDFRNVFLGIHGGKLCLSCVKSGDDTKLQLEEVNITDLNKNKEEDKRFTFIRSETGPTTSFESLACPGWFLCTTLEADHPVSLTNTPKEPCTVTKFYFQEDQ
With B1 the “effect on gp120-induced upregulation of neuronal FHC” value (gp120IIIB or gp120BaL 200 pM, TNF-α antibody 40 μg/mL) was “completely blocked” and the “FHC protein levels, treatment alone” value (without gp120) was “no significant effect on FHC protein levels”.
